Data set [1] concerns the molecule itself. Kind of data set: crystal structure; DNA-free Rv0078, C2 space group crystals, sitting-drop vapor diffusion at 20°C, 0.1 M sodium cacodylate pH 6.4, 1.3 M lithium sulfate; 1.85 Å.
Data set [2] concerns the target T1, Rv0078 (Mycobacterium tuberculosis, UniProt O53623 1-201).
T1 sequence: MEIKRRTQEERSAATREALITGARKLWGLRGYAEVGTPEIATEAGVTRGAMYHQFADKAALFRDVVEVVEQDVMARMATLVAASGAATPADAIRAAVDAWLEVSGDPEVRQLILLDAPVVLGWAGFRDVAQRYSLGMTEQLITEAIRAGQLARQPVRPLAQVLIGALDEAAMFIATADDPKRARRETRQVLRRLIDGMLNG
Kind of data set: ITC; […], room temperature 30 min; […], buffer not stated. To be noted: protein: recombinant; tags: C-terminal His6; chain copies: 4.

The target of data set [3] is T1, Rv0078. Kind of data set: crystal structure; […], room temperature 30 min; […], buffer not stated. To be noted: protein: recombinant; tags: C-terminal His6; chain copies: 4; blunt.

B1: Rv0078-His6 (TetR-like transcriptional repressor Rv0078) (natural protein)
chain: MEIKRRTQEERSAATREALITGARKLWGLRGYAEVGTPEIATEAGVTRGAMYHQFADKAALFRDVVEVVEQDVMARMATLVAASGAATPADAIRAAVDAWLEVSGDPEVRQLILLDAPVVLGWAGFRDVAQRYSLGMTEQLITEAIRAGQLARQPVRPLAQVLIGALDEAAMFIATADDPKRARRETRQVLRRLIDGMLNG
notes: also called LoaR; EthR2; not shown: His6, C-terminal, kept
Take B1: the “stoichiometry N” value in data set [1] worked out at 2.

B2: +13/-8 DNA probe (ITC) (dsDNA)
DNA 1: TTACAAGCAGACTGCCGGTAA
DNA 2: TTACCGGCAGTCTGCTTGTAA
In the case of B2, the equilibrium dissociation constant (Kd) in data set [2] was 357 nM.

B3: 23-mer operator duplex (dsDNA)
DNA 1: TTTACAAGCAGACTGCCGGTAAC
DNA 2: GTTACCGGCAGTCTGCTTGTAAA
B3: the binding result in data set [3] is given as “binds”.
